The source of these data is article doi:10.1101/2023.01.09.523197.

In the series the target is GlnR;RNAP holoenzyme (Mycobacterium …, UniProt O53830;P9WGZ1;P9WGY9;P9WGY7;P9WGY5;P9WGI1 1-255;1-347;1-1178;1-1316;1-110;1-528, |). Briefly: cryo-EM.

B1: amtB scaffold (dsDNA)
DNA 1: CTTCGTCACGGCGGCGAAACAACGAGGGGCTTCCACCGAAACCGCGCTGCGTTATAATGGGAGCTGTCACGGATGCA
DNA 2: TGCATCCGTGAGTCGAGGGTAATAAACGCAGCGCGGTTTCGGTGGAAGCCCCTCGTTGTTTCGCCGCCGTGACGAAG
Turning to B1, the binding result is on record as “binds”.
